Where two headings read alike, the source gives them in different places. Each block holds one binder with its values, some of them ahead of it.
How the values were obtained:
[1] = target: T1, Serum-derived human C1s (human, UniProt P09871 16-688); experiment: SPR Biacore T200, 37 C, antibody captured on protein A/G, pH 5.8, 1.2 mM CaCl2; marked *: not accurately determined, low binding response
T1 construct: The analyte was C1s purified from serum; also called hC1s
T1 sequence: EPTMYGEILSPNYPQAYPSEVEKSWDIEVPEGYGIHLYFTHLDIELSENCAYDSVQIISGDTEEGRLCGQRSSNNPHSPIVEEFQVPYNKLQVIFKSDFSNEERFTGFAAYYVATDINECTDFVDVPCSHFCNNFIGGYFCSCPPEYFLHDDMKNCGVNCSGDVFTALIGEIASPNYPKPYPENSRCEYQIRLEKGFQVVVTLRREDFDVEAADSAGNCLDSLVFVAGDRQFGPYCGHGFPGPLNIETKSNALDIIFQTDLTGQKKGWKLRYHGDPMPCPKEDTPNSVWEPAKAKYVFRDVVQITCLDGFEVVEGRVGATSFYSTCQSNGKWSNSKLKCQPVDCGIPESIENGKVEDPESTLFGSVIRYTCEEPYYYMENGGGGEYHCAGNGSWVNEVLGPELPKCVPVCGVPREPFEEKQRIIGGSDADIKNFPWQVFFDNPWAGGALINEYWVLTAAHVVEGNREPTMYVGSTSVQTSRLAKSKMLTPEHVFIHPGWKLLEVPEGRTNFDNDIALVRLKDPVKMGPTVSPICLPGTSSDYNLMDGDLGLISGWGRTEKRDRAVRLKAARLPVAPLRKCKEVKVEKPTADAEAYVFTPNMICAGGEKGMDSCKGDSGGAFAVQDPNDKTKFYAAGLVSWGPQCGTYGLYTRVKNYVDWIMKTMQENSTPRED
Experimental: (§1) The binding affinity of all histidine-substituted variants at pH 7.4 and pH 5.8 were determined at 37 degrees C. using Biacore T200 instrument (GE Healthcare). Recombinant Protein A/G (Pierce) was immobilized onto all flow cells of a CM4 sensor chip using amine coupling kit (GE Healthcare). Antibodies and analytes were prepared in 7(+) buffer (20 mM ACES, 150 mM NaCl, 1.2 mM CaCl2, 0.05% Tween 20, 0.005% NaN3, pH 7.4) or 5(+) buffer (20 mM ACES, 150 mM NaCl, 1.2 mM CaCl2), 0.05% Tween 20, 0.005% NaN3, pH 5.8). Each antibody was captured onto the sensor surface by protein A/G. Antibody capture levels were aimed at 200 resonance unit (RU). […] Sensor surface was regenerated each cycle with 10 mM Glycine-HCl pH 1.5. […] An additional dissociation phase at pH 5.8 was integrated immediately after the dissociation phase at pH 7.4. This dissociation rate in 5(+) buffer was determined by processing and fitting data using Scrubber 2.0 (BioLogic Software) curve fitting software.

[2] = target: T1, Serum-derived human C1s; experiment: SPR Biacore T200, 37 C, ratio of dissociation rates pH 5.8 / pH 7.4, 1.2 mM CaCl2
[3] = target: T1, Serum-derived human C1s; experiment: SPR Biacore T200, 37 C, antibody captured on protein A/G, pH 7.4, 1.2 mM CaCl2
[4] = target: T1, Serum-derived human C1s; experiment: SPR Biacore T200, 37 C, added dissociation phase at pH 5.8 (1.2 mM CaCl2) straight after that at pH 7.4
Experimental: (§2) The binding affinity of all histidine-substituted variants at pH 7.4 and pH 5.8 were determined at 37 degrees C. using Biacore T200 instrument (GE Healthcare). Recombinant Protein A/G (Pierce) was immobilized onto all flow cells of a CM4 sensor chip using amine coupling kit (GE Healthcare). Antibodies and analytes were prepared in 7(+) buffer (20 mM ACES, 150 mM NaCl, 1.2 mM CaCl2), 0.05% Tween 20, 0.005% NaN3, pH 7.4) or 5(+) buffer (20 mM ACES, 150 mM NaCl, 1.2 mM CaCl2, 0.05% Tween 20, 0.005% NaN3, pH 5.8). Each antibody was captured onto the sensor surface by protein A/G. Antibody capture levels were aimed at 200 resonance unit (RU). Serum-derived human C1s was injected at 50 nM, followed by dissociation. Sensor surface was regenerated each cycle with 10 mM Glycine-HCl pH 1.5. […] An additional dissociation phase at pH 5.8 was integrated immediately after the dissociation phase at pH 7.4. This dissociation rate in 5(+) buffer was determined by processing and fitting data using Scrubber 2.0 (BioLogic Software) curve fitting software (Table 9).

[5] = target: T1, Serum-derived human C1s; experiment: SPR Biacore T200, 37 C, antibody captured on protein A/G, C1s at 50 nM, pH 7.4, 1.2 mM CaCl2
Experimental: as §2

[6] = target: T1, Serum-derived human C1s; experiment: SPR Biacore T200, 37 C, ratio of dissociation rates pH 5.8 / pH 7.4, 1.2 mM CaCl2; remark: listed apart in the source
Experimental: as §2

[7] = target: T2, human C1s (human, UniProt P09871 16-688); experiment: SPR; KD at pH 5.8 over KD at pH 7.4, both 1.2 mM Ca
T2 construct: Analyte in the Biacore assays; also called hC1s; serum-derived human C1s (CompTech)
T2 sequence: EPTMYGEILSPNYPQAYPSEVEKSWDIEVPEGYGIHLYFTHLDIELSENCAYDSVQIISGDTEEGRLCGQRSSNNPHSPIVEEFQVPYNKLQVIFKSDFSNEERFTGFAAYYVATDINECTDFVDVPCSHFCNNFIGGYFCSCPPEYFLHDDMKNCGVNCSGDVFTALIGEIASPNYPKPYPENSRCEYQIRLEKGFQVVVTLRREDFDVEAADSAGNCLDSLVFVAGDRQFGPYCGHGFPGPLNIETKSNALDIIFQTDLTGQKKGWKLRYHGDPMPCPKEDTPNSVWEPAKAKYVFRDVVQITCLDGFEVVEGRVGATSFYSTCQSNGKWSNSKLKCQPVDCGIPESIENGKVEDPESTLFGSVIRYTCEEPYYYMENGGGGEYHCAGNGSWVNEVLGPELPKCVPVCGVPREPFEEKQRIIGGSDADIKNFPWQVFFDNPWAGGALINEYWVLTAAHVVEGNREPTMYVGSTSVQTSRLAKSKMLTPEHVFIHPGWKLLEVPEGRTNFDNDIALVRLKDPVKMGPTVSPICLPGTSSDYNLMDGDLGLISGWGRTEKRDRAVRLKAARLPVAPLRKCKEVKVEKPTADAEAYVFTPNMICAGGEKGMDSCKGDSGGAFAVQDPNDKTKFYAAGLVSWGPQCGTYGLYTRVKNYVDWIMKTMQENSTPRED
Experimental: as §1, with “software. […]” for “software.”

[8] = target: T2, human C1s; experiment: SPR; koff (5.8+ of 775+): extra dissociation phase at pH 5.8 (1.2 mM Ca) right after the pH 7.4 dissociation, Scrubber fit
Experimental: as §1

[9] = target: T2, human C1s; experiment: SPR (Biacore T200, 37C), Ab captured on protein A/G, serum C1s 200 and 800 nM; pH 5.8, 1.2 mM Ca
Experimental: as §1

[10] = target: T2, human C1s; experiment: SPR (Biacore T200, 37C), Ab captured on protein A/G, serum C1s 12.5 and 50 nM; pH 7.4, 1.2 mM Ca
Experimental: as §1

Kd [1]: 8530 nM
koff [1]: 0.0237 s⁻¹
kon [1]: 2780 M⁻¹ s⁻¹
koff (5.8+ of 775+)/koff (7.4+) [2]: 16.3
Kd [3]: 1.43 nM
kon [3]: 574000 M⁻¹ s⁻¹
B1: IPN92H0286/IPN93L0205-SG136 (antibody, human IgG1, kappa, name in Kabat numbering)
heavy: EVMLVESGGGLVKPGGSLRLSCAASGFTFSNKAMSWVRQAPGKGLEWVATISSGGSHTYYLDSVKHRFTISRDNSKDTLYLQMNSLRAEDTALYYCARLFTGHAMDYWGQGTLVTVSSASTKGPSVFPLAPSSKSTSGGTAALGCLVKDYFPEPVTVSWNSGALTSGVHTFPAVLQSSGLYSLSSVVTVPSSSLGTQTYICNVNHKPSNTKVDKKVEPKSCDKTHTCPPCPAPELRRGPSVFLFPPKPKDTLMISRTPEVTCVVVDVSHEDPEVKFNWYVDGVEVHNAKTKPREEQYNSTYRVVSVLTVLHQDWLNGKEYKCKVSNKGLPSSIEKTISKAKGQPREPQVYTLPPSREEMTKNQVSLTCLVKGFYPSDIAVEWESNGQPENNYKTTPPVLDSDGSFFLYSKLTVDKSRWQQGNVFSCSVMHEALHNHYTQKSLSLSP
light: QIVLTQSPATLSLSPGERATLSCTASSSVSSSRLHWYQQKPGKAPKLWIYSTSNLASGVPSRFSGSGSGTDYTLTISSLQPEDFATYYCHQYHRHPPITFGQGTKLEIKRTVAAPSVFIFPPSDEQLKSGTASVVCLLNNFYPREAKVQWKVDNALQSGNSQESVTEQDSKDCTYSLSSTLTLSKADYEKHKVYACEVTHQGLSSPVTKSFNRGEC
notes: Substitutions are numbered by Kabat

koff [4]: 0.00109 s⁻¹
koff [5]: 0.00192 s⁻¹
kon [5]: 183000 M⁻¹ s⁻¹
koff (5.8+ of 775+)/koff (7.4+) [6]: 0.57
B5: C1_IPN92H0012-SG4GK/IPN009VK3-SK1 (antibody, V domains shown)
VH: EVMLVESGGGLVKPGGSLRLSCAASGFTFSNYAMSWVRQAPGKGLEWVATHSSGGSHTYYLDSVKGRFTISRDNSKDTLYLQMNSLRAEDTALYYCARLFTGYAMDYWGQGTLVTVSS
VL: QIVLTQSPATLSLSPGERATLSCTASSSVSSSYLHWYQQKPGKAPKLWIYSTSNLASGVPSRFSGSGSGTDYTLTISSLQPEDFATYYCHQYYRLPPITFGQGTKLEIKR
notes: Single histidine variant of the VH IPN009VH2, with SG4GK and SK1 constant regions

Second part, the binder before the results:

B2: C1_IPN009VH2-SG4GK/IPN009VK3-SK1 (antibody, human IgG4 S228P, kappa)
heavy: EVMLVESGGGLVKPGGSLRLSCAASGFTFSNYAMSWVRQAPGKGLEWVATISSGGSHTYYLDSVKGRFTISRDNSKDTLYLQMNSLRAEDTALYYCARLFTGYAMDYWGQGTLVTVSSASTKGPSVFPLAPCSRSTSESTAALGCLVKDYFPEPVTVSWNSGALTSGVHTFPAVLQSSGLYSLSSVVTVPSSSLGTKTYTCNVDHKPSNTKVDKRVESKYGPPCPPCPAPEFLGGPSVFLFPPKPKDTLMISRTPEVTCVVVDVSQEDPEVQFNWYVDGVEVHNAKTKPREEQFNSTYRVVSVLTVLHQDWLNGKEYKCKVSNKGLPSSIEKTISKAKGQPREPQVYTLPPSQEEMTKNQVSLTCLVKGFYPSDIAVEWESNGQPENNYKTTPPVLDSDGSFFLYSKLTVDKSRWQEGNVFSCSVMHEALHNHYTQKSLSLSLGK
light: QIVLTQSPATLSLSPGERATLSCTASSSVSSSYLHWYQQKPGKAPKLWIYSTSNLASGVPSRFSGSGSGTDYTLTISSLQPEDFATYYCHQYYRLPPITFGQGTKLEIKRTVAAPSVFIFPPSDEQLKSGTASVVCLLNNFYPREAKVQWKVDNALQSGNSQESVTEQDSKDSTYSLSSTLTLSKADYEKHKVYACEVTHQGLSSPVTKSFNRGEC
notes: also called IPN009VH2/IPN009VK3; IPN09VH2/IPN09VK3
koff [4]: 0.000148 s⁻¹
koff [5]: 0.00037 s⁻¹
kon [5]: 298000 M⁻¹ s⁻¹
koff (5.8+ of 775+)/koff (7.4+) [6]: 0.4

B3: IPN92H0281/IPN93L0024-SG136 (antibody, human IgG1, kappa, name in Kabat numbering)
heavy: EVMLVESGGGLVKPGGSLRLSCAASGFTFSNYAMSWVRQAPGKGLEWVATISSGGSKTYELDSVDERFTISRDNSKDTLYLQMNSLRAEDTALYYCARLFTKHAMDYWGQGTLVTVSSASTKGPSVFPLAPSSKSTSGGTAALGCLVKDYFPEPVTVSWNSGALTSGVHTFPAVLQSSGLYSLSSVVTVPSSSLGTQTYICNVNHKPSNTKVDKKVEPKSCDKTHTCPPCPAPELRRGPSVFLFPPKPKDTLMISRTPEVTCVVVDVSHEDPEVKFNWYVDGVEVHNAKTKPREEQYNSTYRVVSVLTVLHQDWLNGKEYKCKVSNKGLPSSIEKTISKAKGQPREPQVYTLPPSREEMTKNQVSLTCLVKGFYPSDIAVEWESNGQPENNYKTTPPVLDSDGSFFLYSKLTVDKSRWQQGNVFSCSVMHEALHNHYTQKSLSLSP
light: QIVLTQSPATLSLSPGERATLSCTASSSVSSSYLHWYQQKPGKAPKLWIYSTSNLASGVPSRFSGSGSGTDYTLTISSLQPEDFATYYCHQYYRLHPITFGQGTKLEIKRTVAAPSVFIFPPSDEQLKSGTASVVCLLNNFYPREAKVQWKVDNALQSGNSQESVTEQDSKDCTYSLSSTLTLSKADYEKHKVYACEVTHQGLSSPVTKSFNRGEC
notes: also called IPN92H0281/IPN93L0024 (lot PPU2047); IPN92H281/IPN93L0024-SG136
KD (5.8+)/KD (7.4+) [7]: 60.9
koff [8]: 0.0247 s⁻¹
Kd [9]: 123 nM
koff [9]: 0.0267 s⁻¹
kon [9]: 217000 M⁻¹ s⁻¹
Kd [10]: 2.02 nM
koff [10]: 0.000645 s⁻¹

B4: C1_IPN009VH2-SG4GK/IPN93L0026-SK1 (antibody, V domains shown)
VH: EVMLVESGGGLVKPGGSLRLSCAASGFTFSNYAMSWVRQAPGKGLEWVATISSGGSHTYYLDSVKGRFTISRDNSKDTLYLQMNSLRAEDTALYYCARLFTGYAMDYWGQGTLVTVSS
VL: QIVLTQSPATLSLSPGERATLSCTASSSVSSSYLHWYQQKPGKAPKLWIYSTSNLASGVPSRFSGSGSGTDYTLTISSLQPEDFATYYCHQYYRLPPHTFGQGTKLEIKR
notes: It is read here as I96H (Kabat) in the VL IPN009VK3
koff [4]: 0.00115 s⁻¹
Kd [5]: 4.28 nM
koff [5]: 0.0015 s⁻¹
kon [5]: 350000 M⁻¹ s⁻¹
koff (5.8+ of 775+)/koff (7.4+) [6]: 0.77

— US20210032365A1 (Chugai, published 2021)
